The values below come from paper doi:10.1101/2025.03.31.646301, “Discovery of Tankyrase scaffolding inhibitor specifically targeting the ARC4 peptide binding domain” (bioRxiv, 2025).

The experiment deals with T1, TNKS2 ARC4 fused with mCerulean (CFP) (human, UniProt Q9H2K2 488-649).
T1 construct: Tankyrase 2 (TNKS2), human, ankyrin repeat cluster 4 (ARC4); residues 487-649 are stated only for the crystallised TNKS2 ARC4; Vector pNIC-CFP: mCerulean inserted between the 6xHis-tag and the TEV site of pNIC28-Bsa4; the label reads CFP first, so the tags are probably N-terminal; also called CFP-TNKS2 ARC4; source: E. coli BL21(DE3), purified (IMAC, SEC)
T1 sequence: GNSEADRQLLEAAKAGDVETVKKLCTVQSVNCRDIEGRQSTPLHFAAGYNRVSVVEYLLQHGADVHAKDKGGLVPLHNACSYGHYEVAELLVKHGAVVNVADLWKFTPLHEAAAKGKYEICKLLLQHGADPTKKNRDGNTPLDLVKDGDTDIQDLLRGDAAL
Briefly: FRET or BRET; ratiometric FRET in solution: CFP-TNKS1/2 ARC 100 nM and YFP-REAGDGEE 200 nM, 10 mM Bis-Tris Propane pH 7, 3% PEG 20000, 0.01% Triton X-100, 0.5 mM TCEP; small-molecule compounds added (screen at 30 uM, dose response); 1 M guanidine hydrochloride as control of total inhibition. The following applies: both partners purified.

Ends that are not written are not given here.

B1: 8-residues peptide optimized for the binding of ARCs (REAGDGEE) fused with mCitrine (YFP) (peptide)
chain: REAGDGEE
modifications: also: fused with mCitrine (YFP)
notes: Vector pNIC-YFP: mCitrine inserted between the 6xHis-tag and the TEV site of pNIC28-Bsa4; the label reads YFP first, so the peptide probably stands at the C-terminal end of the fusion; also called optimized peptide; source: E. coli BL21(DE3), purified (IMAC, SEC)
With B1, the binding result was “binds”.
